Source: PMC6899631, “An essential pentatricopeptide repeat protein in the apicomplexan remnant chloroplast”

T1: His6-TRX-PfPPR1 (Plasmodium falciparum, UniProt Q8IM30 121-608)
T1 sequence: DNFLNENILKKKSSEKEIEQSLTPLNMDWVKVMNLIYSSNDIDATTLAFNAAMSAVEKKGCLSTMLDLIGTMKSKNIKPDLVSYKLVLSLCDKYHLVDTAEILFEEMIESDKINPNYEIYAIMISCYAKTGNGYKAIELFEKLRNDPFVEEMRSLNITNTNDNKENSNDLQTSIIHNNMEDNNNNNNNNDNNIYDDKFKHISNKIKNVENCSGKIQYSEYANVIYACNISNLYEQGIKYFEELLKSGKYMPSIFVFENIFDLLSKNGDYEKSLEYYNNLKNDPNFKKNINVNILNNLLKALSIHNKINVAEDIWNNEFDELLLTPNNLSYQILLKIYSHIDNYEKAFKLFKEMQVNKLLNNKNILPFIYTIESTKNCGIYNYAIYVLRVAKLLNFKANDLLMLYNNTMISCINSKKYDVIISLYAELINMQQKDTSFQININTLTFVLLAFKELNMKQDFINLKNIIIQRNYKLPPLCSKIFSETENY


Experiments:
[1] = molecular target: His6-TRX-PfPPR1 (Plasmodium falciparum apicoplast pentatricopeptide repeat protein PPR1, minus the bipartite leader, with N-terminal TRX-His6 tag) (Plasmodium falciparum); assay: SEC; S200 10/300 analytical gel filtration column in 50 mM Tris pH 8.0, 200 mM NaCl, 5 mM DTT; sample in 10 mM HEPES pH 7.5, 20 mM KCl, 1 mM MgCl2, 1 mM DTT, 15 min at room temperature; control without RNA (with RNA 4 or RNA 5 the dimer eluted earlier, with RNA bound)
[2] = molecular target: PfPPR1 minus the His6-TRX tag (tag cleaved by HRV 3C protease) (Plasmodium falciparum); assay: AUC; sedimentation velocity, PfPPR1 minus His6-TRX tag at 1.8 mg/mL, continuous c(s) distribution model
His6-TRX-PfPPR1 = molecular target: T1, His6-TRX-PfPPR1; assay: pull-down; Pull-down: 10 mM HEPES pH 7.5, 20 mM KCl, 1 mM MgCl2, 1 mM DTT, room temperature 15 min; 400 nM biotinylated RNA, 800 nM protein (Results state 1:1 molar). Gel; details: protein: recombinant; tags: N-terminal TRX-His6 (HRV 3C cleavable); chain copies: 2; label: 3' biotin (pull-down)

Molecule | binding result (His6-TRX-PfPPR1) | also measured
His6-TRX-PfPPR1 (Plasmodium falciparum apicoplast pentatricopeptide repeat protein PPR1, minus the bipartite leader, with N-terminal TRX-His6 tag) (natural protein) | – | stoichiometry N [1]: 2
PfPPR1 minus the His6-TRX tag (tag cleaved by HRV 3C protease) (natural protein) | – | stoichiometry N [2]: 2
ACGACAUUAUAAGGUCGGA (ssRNA) [RNA oligo 2] | binds | –
ACGACAUUAUAUGGUCGGA (ssRNA) [RNA oligo 1] | binds | –
ACGACAUGACGAGGUCGGA (ssRNA) [RNA oligo 3] | no binding | –
